# In PMC7261175, “A splice site-sensing conformational switch in U2AF2 is modulated by U2AF1 and its recurrent myelodysplasia-associated mutation” (Nucleic Acids Research, 2019):
# Tests used:
# [1] = molecular target: U2AF2 Cy3/Cy5 isolated subunit (human, UniProt P26368-2 113-342, A181C;C305A;Q324C); test: smFRET; RNA tethered; preferentially open; Anisotropy: 150 mM NaCl, 25 mM HEPES pH 6.8, 0.5 mM TCEP, 3% glycerol, 20 uM ZnCl2, 0.2 U/ul SUPERase-In; smFRET: 25 mM HEPES pH 7.0, 150 mM KCl, 0.01% octaethylene glycol monododecyl ether, 0.2 mM TCEP, 6 mM BME, 1.5 mM Trolox, oxygen scavenger, room temperature, excess U2AF1 (1000 nM) with heterodimer; conditions: protein: recombinant, tags: His6 and T7 tags, label: biotin on annealed DNA
# U2AF2 Cy3/Cy5 isolated subunit, sequence (P26368 113-342 A181C/C305A/Q324C): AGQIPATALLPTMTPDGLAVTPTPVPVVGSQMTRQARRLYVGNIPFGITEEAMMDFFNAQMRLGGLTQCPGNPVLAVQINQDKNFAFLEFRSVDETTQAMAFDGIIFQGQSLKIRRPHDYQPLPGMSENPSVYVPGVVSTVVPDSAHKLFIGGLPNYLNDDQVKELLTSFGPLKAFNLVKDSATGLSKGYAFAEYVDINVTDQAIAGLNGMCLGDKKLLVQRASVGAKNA
# [2] = molecular target: T1, His6SumoMBP-U2AF1;U2AF2 Cy3/Cy5 (human;human, UniProt Q01081;P26368-2 1-188;85-342, C67S|A181C;C305A;Q324C); test: smFRET; RNA tethered; more open than DEK(-3U); Anisotropy: 150 mM NaCl, 25 mM HEPES pH 6.8, 0.5 mM TCEP, 3% glycerol, 20 uM ZnCl2, 0.2 U/ul SUPERase-In; smFRET: 25 mM HEPES pH 7.0, 150 mM KCl, 0.01% octaethylene glycol monododecyl ether, 0.2 mM TCEP, 6 mM BME, 1.5 mM Trolox, oxygen scavenger, room temperature, excess U2AF1 (1000 nM) with heterodimer; conditions: protein: recombinant;recombinant; tags: N-terminal His6-SUMO-MBP with AAA linker; C-terminal extra Ala;GST cleaved; Cy3/Cy5 on C181 and C324; copies: 1;1; label: biotin on annealed DNA
# T1 sequence (Q01081 1-188 C67S, chain 1 of 2): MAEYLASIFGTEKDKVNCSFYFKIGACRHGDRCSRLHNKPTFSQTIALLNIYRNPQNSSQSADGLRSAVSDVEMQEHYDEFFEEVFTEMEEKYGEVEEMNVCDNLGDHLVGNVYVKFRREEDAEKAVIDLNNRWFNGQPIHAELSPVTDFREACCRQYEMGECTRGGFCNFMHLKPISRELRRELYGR
# T1 sequence (P26368 85-342 A181C/C305A/Q324C, chain 2 of 2): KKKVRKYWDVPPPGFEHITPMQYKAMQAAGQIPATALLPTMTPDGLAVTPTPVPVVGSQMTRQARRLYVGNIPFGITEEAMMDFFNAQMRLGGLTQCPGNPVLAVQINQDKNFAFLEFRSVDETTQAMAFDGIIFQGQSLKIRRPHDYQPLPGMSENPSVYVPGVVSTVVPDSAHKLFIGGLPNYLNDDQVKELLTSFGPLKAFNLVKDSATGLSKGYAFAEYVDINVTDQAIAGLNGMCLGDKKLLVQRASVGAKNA
# [3] = molecular target: T2, His6SumoMBP-U2AF1 S34F;U2AF2 Cy3/Cy5 (human;human, UniProt Q01081;P26368-2 1-188;85-342, S34F;C67S|A181C;C305A;Q324C); test: smFRET; RNA tethered; slightly more open than DEK(-3U); Anisotropy: 150 mM NaCl, 25 mM HEPES pH 6.8, 0.5 mM TCEP, 3% glycerol, 20 uM ZnCl2, 0.2 U/ul SUPERase-In; smFRET: 25 mM HEPES pH 7.0, 150 mM KCl, 0.01% octaethylene glycol monododecyl ether, 0.2 mM TCEP, 6 mM BME, 1.5 mM Trolox, oxygen scavenger, room temperature, excess U2AF1 (1000 nM) with heterodimer; conditions: protein: recombinant;recombinant; tags: N-terminal His6-SUMO-MBP with AAA linker; C-terminal extra Ala;GST cleaved; Cy3/Cy5 on C181 and C324; copies: 1;1; label: biotin on annealed DNA
# T2 sequence (Q01081 1-188 S34F/C67S, chain 1 of 2): as the sequence (Q01081 1-188 C67S, chain 1 of 2) above, with S34F counted along it
# T2 sequence (P26368 85-342 A181C/C305A/Q324C, chain 2 of 2): as the sequence (P26368 85-342 A181C/C305A/Q324C, chain 2 of 2) above
# [4] = molecular target: His6SumoMBP-U2AF1;U2AF2 (human;human, UniProt Q01081;P26368-2 1-188;85-471, C67S|); test: fluorescence anisotropy; Anisotropy: 150 mM NaCl, 25 mM HEPES pH 6.8, 0.5 mM TCEP, 3% glycerol, 20 uM ZnCl2, 0.2 U/ul SUPERase-In; smFRET: 25 mM HEPES pH 7.0, 150 mM KCl, 0.01% octaethylene glycol monododecyl ether, 0.2 mM TCEP, 6 mM BME, 1.5 mM Trolox, oxygen scavenger, room temperature, excess U2AF1 (1000 nM) with heterodimer; conditions: protein: recombinant;recombinant; tags: N-terminal His6-SUMO-MBP with AAA linker; C-terminal extra Ala;GST cleaved by PreScission; copies: 1;1; label: 5'-fluorescein
# His6SumoMBP-U2AF1;U2AF2, sequence (Q01081 1-188 C67S, chain 1 of 2): as the sequence (Q01081 1-188 C67S, chain 1 of 2) above
# His6SumoMBP-U2AF1;U2AF2, sequence (P26368 other isoform, or with tags, fused parts or gaps C67S|, chain 2 of 2): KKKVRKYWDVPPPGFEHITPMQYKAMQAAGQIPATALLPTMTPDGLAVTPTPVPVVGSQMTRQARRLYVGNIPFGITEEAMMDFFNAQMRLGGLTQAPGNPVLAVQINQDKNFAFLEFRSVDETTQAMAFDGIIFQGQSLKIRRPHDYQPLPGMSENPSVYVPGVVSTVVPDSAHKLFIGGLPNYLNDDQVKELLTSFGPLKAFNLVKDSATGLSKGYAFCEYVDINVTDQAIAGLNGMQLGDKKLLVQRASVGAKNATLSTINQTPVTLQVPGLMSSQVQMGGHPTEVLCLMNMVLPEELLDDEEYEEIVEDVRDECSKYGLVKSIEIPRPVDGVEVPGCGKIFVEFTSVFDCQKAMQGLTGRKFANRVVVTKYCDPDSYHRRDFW
# [5] = molecular target: U2AF1 UHM (dZn);U2AF2 (human;human, UniProt Q01081;P26368-2 43-146;85-471, C67S|); test: fluorescence anisotropy; Kd shown in figure only; Anisotropy: 150 mM NaCl, 25 mM HEPES pH 6.8, 0.5 mM TCEP, 3% glycerol, 20 uM ZnCl2, 0.2 U/ul SUPERase-In; smFRET: 25 mM HEPES pH 7.0, 150 mM KCl, 0.01% octaethylene glycol monododecyl ether, 0.2 mM TCEP, 6 mM BME, 1.5 mM Trolox, oxygen scavenger, room temperature, excess U2AF1 (1000 nM) with heterodimer; conditions: protein: recombinant;recombinant; tags: GST cleaved by TEV;GST cleaved by PreScission; copies: 1;1; label: 5'-fluorescein
# U2AF1 UHM (dZn);U2AF2, sequence (Q01081 43-146 C67S, chain 1 of 2): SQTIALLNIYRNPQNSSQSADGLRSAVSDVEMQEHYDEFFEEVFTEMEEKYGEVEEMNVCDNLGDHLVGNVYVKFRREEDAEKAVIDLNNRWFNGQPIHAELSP
# U2AF1 UHM (dZn);U2AF2, sequence (P26368 other isoform, or with tags, fused parts or gaps C67S|, chain 2 of 2): as the sequence (P26368 other isoform, or with tags, fused parts or gaps C67S|, chain 2 of 2) above
# [6] = molecular target: U2AF1 untagged;U2AF2 (human;human, UniProt Q01081;P26368-2 1-193;85-471, |); test: fluorescence anisotropy; Kd in figure only; tag has no significant influence; Anisotropy: 150 mM NaCl, 25 mM HEPES pH 6.8, 0.5 mM TCEP, 3% glycerol, 20 uM ZnCl2, 0.2 U/ul SUPERase-In; smFRET: 25 mM HEPES pH 7.0, 150 mM KCl, 0.01% octaethylene glycol monododecyl ether, 0.2 mM TCEP, 6 mM BME, 1.5 mM Trolox, oxygen scavenger, room temperature, excess U2AF1 (1000 nM) with heterodimer; conditions: protein: recombinant;recombinant; tags: MBP cleaved by TEV; GSGGGGS linker remains;GST cleaved by PreScission; copies: 1;1; label: 5'-fluorescein
# U2AF1 untagged;U2AF2, sequence (Q01081 1-193, chain 1 of 2): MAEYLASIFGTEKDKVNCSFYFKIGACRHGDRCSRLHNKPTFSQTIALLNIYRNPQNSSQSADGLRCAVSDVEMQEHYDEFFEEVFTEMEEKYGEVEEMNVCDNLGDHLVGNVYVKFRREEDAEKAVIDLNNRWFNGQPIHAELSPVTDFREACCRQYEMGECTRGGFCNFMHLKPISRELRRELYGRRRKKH
# U2AF1 untagged;U2AF2, sequence (P26368 other isoform, or with tags, fused parts or gaps |, chain 2 of 2): as the sequence (P26368 other isoform, or with tags, fused parts or gaps C67S|, chain 2 of 2) above
# [7] = molecular target: T2, His6SumoMBP-U2AF1 S34F;U2AF2 Cy3/Cy5; test: smFRET; RNA tethered; 25% closed; Anisotropy: 150 mM NaCl, 25 mM HEPES pH 6.8, 0.5 mM TCEP, 3% glycerol, 20 uM ZnCl2, 0.2 U/ul SUPERase-In; smFRET: 25 mM HEPES pH 7.0, 150 mM KCl, 0.01% octaethylene glycol monododecyl ether, 0.2 mM TCEP, 6 mM BME, 1.5 mM Trolox, oxygen scavenger, room temperature, excess U2AF1 (1000 nM) with heterodimer; conditions: protein: recombinant;recombinant; tags: N-terminal His6-SUMO-MBP with AAA linker; C-terminal extra Ala;GST cleaved; Cy3/Cy5 on C181 and C324; copies: 1;1; label: biotin on annealed DNA
# [8] = molecular target: T1, His6SumoMBP-U2AF1;U2AF2 Cy3/Cy5; test: smFRET; RNA tethered; open 0.4 FRET; Anisotropy: 150 mM NaCl, 25 mM HEPES pH 6.8, 0.5 mM TCEP, 3% glycerol, 20 uM ZnCl2, 0.2 U/ul SUPERase-In; smFRET: 25 mM HEPES pH 7.0, 150 mM KCl, 0.01% octaethylene glycol monododecyl ether, 0.2 mM TCEP, 6 mM BME, 1.5 mM Trolox, oxygen scavenger, room temperature, excess U2AF1 (1000 nM) with heterodimer; conditions: protein: recombinant;recombinant; tags: N-terminal His6-SUMO-MBP with AAA linker; C-terminal extra Ala;GST cleaved; Cy3/Cy5 on C181 and C324; copies: 1;1; label: biotin on annealed DNA
# [9] = molecular target: His6SumoMBP-U2AF1;U2AF2 Cy3/Cy5 D215R/G319R (human;human, UniProt Q01081;P26368-2 1-188;85-342, C67S|A181C;D215R;C305A;G319R;Q324C); test: smFRET; RNA tethered; about half closed; Anisotropy: 150 mM NaCl, 25 mM HEPES pH 6.8, 0.5 mM TCEP, 3% glycerol, 20 uM ZnCl2, 0.2 U/ul SUPERase-In; smFRET: 25 mM HEPES pH 7.0, 150 mM KCl, 0.01% octaethylene glycol monododecyl ether, 0.2 mM TCEP, 6 mM BME, 1.5 mM Trolox, oxygen scavenger, room temperature, excess U2AF1 (1000 nM) with heterodimer; conditions: protein: recombinant;recombinant; tags: N-terminal His6-SUMO-MBP with AAA linker; C-terminal extra Ala;GST cleaved; Cy3/Cy5 on C181 and C324; copies: 1;1; label: biotin on annealed DNA
# His6SumoMBP-U2AF1;U2AF2 Cy3/Cy5 D215R/G319R, sequence (Q01081 1-188 C67S, chain 1 of 2): as the sequence (Q01081 1-188 C67S, chain 1 of 2) above
# His6SumoMBP-U2AF1;U2AF2 Cy3/Cy5 D215R/G319R, sequence (P26368 85-342 A181C/D215R/C305A/G319R/Q324C, chain 2 of 2): as the sequence (P26368 85-342 A181C/C305A/Q324C, chain 2 of 2) above, with D131R, G235R counted along it
binder,measurement,setting,value
"UACUAAAUUAAUUUCCAGAAAAGAGU (ssRNA, 3' PEG18-DNA conjugate) [DEK(-3C)]",binding result,[1],binds
same,binding result,[2],binds
same,binding result,[3],binds
CUGUCCCUUUUUUUUCACAGCUCGCGGUUGAG (ssRNA) [Fl-AdML],Kd,[4],120 ± 15 nM
same,fold weaker binding affinity (Kd ratio),[5],35 fold weaker than heterodimer with zinc knuckles
same,binding result,[6],binds
"UCCCUUUUUUUUCCACAGCUCGCGGU (ssRNA, 3' PEG18-DNA conjugate) [AdML tethered]",binding result,[7],binds
same,binding result,[8],binds
same,binding result,[9],binds
